B1: TRAILR2mut-D-CCSPD (ligand)
chain: QRVAAHITGTRGRSNTLSSPNSKNEKALGRKINSWESSRSGHSFLSNLHLRNGELVIHEKGFYYIYSQTQFKFREEIKENTKNDKQMVQYIYKYTSYPDPILLMKSARNSCWSKDAEYGLYSIYQGGIFELKENDRIFVSVTNERLLQMDHEASFFGAFLVGSGLPDVASLRQQVEALQGQVQHLQAAFSQYKKVELFPNGPSSSSSSAWSHPQFEK
notes: Used as HEK293 supernatant
B2: TRAILR2mut-ASPD (ligand)
chain: QRVAAHITGTRGRSNTLSSPNSKNEKALGRKINSWESSRSGHSFLSNLHLRNGELVIHEKGFYYIYSQTQFKFREEIKENTKNDKQMVQYIYKYTSYPDPILLMKSARNSCWSKDAEYGLYSIYQGGIFELKENDRIFVSVTNERLLQMDHEASFFGAFLVGSSGSSGSSGSGLPDVASLRQQVEALQGQVQHLQAAFSQYKKVELFPNGQSVGEKIFKTAGFVKPFTEAQLLCTQAGGQLASPRSAAENAALQQLVVAKNEAAFLSMTDSKTEGKFTYPTGESLVYSNWAPGEPNDDGGSEDCVEIFTNGKWNDRACGEKRLVVCEFGGSPSSSSSSAWSHPQFEK
notes: TRAIL-Receptor 2 selective mutein of the human TRAIL-RBD, A-linker, neck + CRD of human SP-D, linker element and Strep-tag II; Signal peptide 1-20 left out; Homotrimer by SEC; also called Sp-TRAILR2mut-ASPD
B3: TRAILR2mut-A-CCSPD (ligand)
chain: QRVAAHITGTRGRSNTLSSPNSKNEKALGRKINSWESSRSGHSFLSNLHLRNGELVIHEKGFYYIYSQTQFKFREEIKENTKNDKQMVQYIYKYTSYPDPILLMKSARNSCWSKDAEYGLYSIYQGGIFELKENDRIFVSVTNERLLQMDHEASFFGAFLVGSSGSSGSSGSGLPDVASLRQQVEALQGQVQHLQAAFSQYKKVELFPNGPSSSSSSAWSHPQFEK
notes: Used as HEK293 supernatant
B4: TRAILR2mut-D-SPD (ligand)
chain: QRVAAHITGTRGRSNTLSSPNSKNEKALGRKINSWESSRSGHSFLSNLHLRNGELVIHEKGFYYIYSQTQFKFREEIKENTKNDKQMVQYIYKYTSYPDPILLMKSARNSCWSKDAEYGLYSIYQGGIFELKENDRIFVSVTNERLLQMDHEASFFGAFLVGSGLPDVASLRQQVEALQGQVQHLQAAFSQYKKVELFPNGQSVGEKIFKTAGFVKPFTEAQLLCTQAGGQLASPRSAAENAALQQLVVAKNEAAFLSMTDSKTEGKFTYPTGESLVYSNWAPGEPNDDGGSEDCVEIFTNGKWNDRACGEKRLVVCEFGGSPSSSSSSAWSHPQFEK
notes: Used as HEK293 supernatant
B5: LIGHT-ASPD (ligand)
chain: EVNPAAHLTGANSSLTGSGGPLLWETQLGLAFLRGLSYHDGALVVTKAGYYYIYSKVQLGGVGCPLGLASTITHGLYKRTPRYPEELELLVSQQSPCGRATSSSRVWWDSSFLGGVVHLEAGEEVVVRVLDERLVRLRDGTRSYFGAFMVGSSGSSGSSGSGLPDVASLRQQVEALQGQVQHLQAAFSQYKKVELFPNGQSVGEKIFKTAGFVKPFTEAQLLCTQAGGQLASPRSAAENAALQQLVVAKNEAAFLSMTDSKTEGKFTYPTGESLVYSNWAPGEPNDDGGSEDCVEIFTNGKWNDRACGEKRLVVCEFGGSPSSSSSSAWSHPQFEK
notes: Human LIGHT-RBD (Glu91-Val240), A-linker, neck + CRD of human SP-D, linker element and Strep-tag II; Signal peptide 1-20 left out; Trimer by SEC, glycosylated; also called Sp-LIGHT-ASPD

What was measured:
TRAIL-Receptor 1-Fc [1] = target: T1, TRAIL-Receptor 1-Fc (UniProt O00220 109-239, limits assumed); test: Streptactin-ELISA, supernatant immobilized, constant concentration of TRAIL-Receptor 1-Fc (FIG. 14A)
T1 construct: Bought from R&D Systems; also called TRAILR1; not shown: Fc part of the bought fusion protein
T1 sequence (O00220 109-239 limits assumed): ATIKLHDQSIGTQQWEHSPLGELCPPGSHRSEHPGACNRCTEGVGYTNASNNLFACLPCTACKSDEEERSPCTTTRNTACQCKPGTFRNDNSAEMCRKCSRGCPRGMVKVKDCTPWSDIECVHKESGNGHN
Procedure: (§1) To determine the binding of receptors to constructed ligands, streptactin-coated 96-well microplates were used. Therefore, supernatants from transiently transfected HEK293 cells, mouse sera or purified proteins were immobilized on streptactin-plates (IBA GmbH) for 1-3 hours in PBS. Samples were diluted in ELISA binding/blocking buffer (PBS, 0.1% Tween-20, 20% SuperBlock T20-PBS (Pierce)). Plates were washed with PBS+0.1% Tween-20 and incubated with mouse-anti-TRAIL antibody (Pharmingen, clone RIK-2), TRAIL-Receptor 1-Fc (R&D Systems), TRAIL-Receptor 2-Fc (R&D Systems), TACI-Fc (R&D Systems) or HVEM-Fc (R&D Systems) for one hour at room temperature. Plates were again washed and Fc-proteins were detected with anti-human- or anti-mouse-Fc-specific peroxidase-conjugated antibodies (Sigma). Colour reaction was done by addition of 100 μl per well of TMB substrate (Kem-En-Tec Diagnostics) and the absorbance at 450 nm and 630 nm was determined with an ELISA reader after addition of 25 μl of 25% H₂SO₄ as stop-solution. Values were calculated as 450 nm-630 nm with MS Excel.
The selectivity of TRAIL-Receptor 1 or TRAIL-Receptor 2 towards fusion proteins of SPD/ccSPD and TRAIL, TRAILR1 mut and TRAILR2mut was shown by Streptactin-ELISA. Therefore, TRAIL-SPD-fusion proteins in supernatants from transiently transfected HEK293 cells were immobilized on Streptactin coated microplates. Cell supernatant from untransfected cells served as negative control. Specifically bound proteins were detected with constant (A, B) or varying (C, D) concentrations of either TRAIL-Receptor 1-Fc or TRAIL-Receptor 2-Fc. As shown in (A), the ligand TRAILR1 mut fused to SPD variants is deteced by TRAIL-Receptor 1, whereas the ligand TRAILR2mut is not. As shown in (B), the ligand TRAILR2mut is preferentially detected by TRAIL-Receptor 2, whereas TRAILR1 mut- and TRAIL wild-type constructs are equally well detected. As shown in C, TRAIL-Receptor 1-Fc bound to TRAIL-R1mut-ASPD and TRAIL-ASPD equally well over the whole receptor titration range, whereas TRAIL-R2mut-ASPD is not detected. As shown in D, TRAIL-Receptor 2-Fc bound to TRAIL-R2mut-ASPD and TRAIL-ASPD equally well over the receptor titration range analyzed, whereas the signal for TRAIL-R1mut-ASPD decreased rapidely with decreasing concentrations of receptor.

TRAIL-Receptor 1-Fc [2] = target: T1, TRAIL-Receptor 1-Fc; test: Streptactin-ELISA, LIGHT-ASPD immobilized via Strep-tag II
Procedure: as §1
Varying concentrations (0-10 microgram/ml) of affinity and SEC purified, trimeric LIGHT-ASPD were used for immobilized via the Strep-tag II on Streptactin-coated microplates. LIGHT-ASPD was then detected in a ELISA set-up using 100 ng/ml of Fc-fusion proteins of the receptors HVEM and TRAIL-Receptor 1, respectively. […]

Row | Binder | binding result (TRAIL-Receptor 1-Fc [1]) | binding result (TRAIL-Receptor 1-Fc [2])
1 | B1 | no binding | –
2 | B2 | no binding | –
3 | B3 | no binding | –
4 | B4 | no binding | –
5 | B5 | – | no binding
